Assay results reported in patent US20090312245A1, “SRA binding protein” (The University of Western Australia, priority 2005, published 2009).
Values belong to the molecule of their own block, whether it stands above or below them.

Experiments:
estrogen receptor (ER) = assay: ERE-Luc (E2-responsive) reporter transfection assay in HeLa cells; type: cell-based, human
Experimental: HeLa cells were transfected using FuGENE6 (Roche) with equal molar ratios of control and plasmid DNA: 50 ng/well ER(α); 0.6 μg/well ERE-Luc, GRE-Luc, TRE-Luc, ARE-Luc, VDRE-Luc; 0.0625 μg/well pSCT or 0.08 μg/well pSCT-SRA/pSCT-SRA-SDM7a; 0.049 μg/well pCMV-FLAG-7.1 or […] FLAG-SLIRP/FLAG-SLIRP-R24/FLAG-SLIRP-L62/FLAG-SLIRP-DM; 0.3 μg/well pCMX or 0.5 μg/well pCMX-SHARP; 100 ng/well pCGN or 100 ng/well pCGN-SKIP. After transfection, cells were cultured in complete medium for 24 h, prior to the addition of E2 (10 nM), Dex (10 nM), T3 (1 nM), DHT (10 nM), VitD (100 nM), 4-hydroxytamoxifen (Tam, 1 nM), ICI182780 (ICI, 1 nM) or equal volume of vehicle (absolute ethanol or water). After 8 h, lysates were assayed for luciferase activity relative to protein levels using Luciferase (Promega) and Protein Assay (BioRad) on a FluorStar Optima (BMG).

SRA STR7 = assay: REMSA with 32P-labeled SRA STR7 probe and recombinant proteins; type: binding, human; conditions: in the presence of heparin and RNase T1
Description: The yeast three-hybrid SLIRP cDNA clone containing the coding region and 3′ UTR, was amplified with specific primers SLIRP (sense) 5′ cgc gga tcc gcg gcc tca gca gca 3′, SLIRP (reverse) 5′ gcg cgg atc cta ggc tgc agt ctca 3′, and subcloned into BamHI cut pCMV-FLAG 7.1 for transfection assays and pGEX-6P2 for GST-fusion protein experiments. STR7 primers (sense) 5′ agg agg cag gta tgt gat gac atc agc cga cgc ctg gca ctg ctg cag gaa cag tgg gct gga gga aag ttg tca ata cct gta aag aa 3′ and (reverse) 5′ ttc ttt aca ggt aft gac aac ttt cct cca gcc cac tgt tcc tgc agc agt gcc agg cgt cgg ctg atg tca tca cat acc tgc ttc ct 3′ were annealed and cloned into EcoRV-digested pBluescript II KS+ to generate labeled riboprobes. To generate the SRA mutant SDM7, the underlined residues above were mutated to tcc, ctc and ctc as outlined previously (19). pBluescript vectors were linearized with EcoRV for transcription with T7 or T3 RNA polymerase (Invitrogen) in reactions containing [^32P]UTP (Amersham Biosciences) or unlabeled UTP, as described (16), to produce riboprobes with a specific activity of ˜2×10^9 cpm/μg RNA. Constructs for expressing mutant forms of SLIRP (R24, 25A and L62A) were prepared by PCR-based mutagenesis. Each of the mutant coding domains was subcloned into BamH1-cut pCMV-FLAG 7.1 and pGEX-6P2 as above. […]

Molecule: SHARP: SMRT/HDAC1 associated repressor protein, SRA corepressor, transfected expression vector [reference compound]
- repression of SRA-mediated coactivation of E2-responsive reporter (estrogen receptor (ER); cotransfected with SRA): repressed SRA-mediated coactivation

- binding to SRA STR7 probe (SRA STR7): bound STR7 avidly
B1: GST-SHARP-RRM: GST-SHARP fusion protein containing the three RRM domains (SHARP aas 1-608) (protein, UniProt Q96T58 1-608, looked up, fragment)
chain: MVRETRHLWVGNLPENVREEKIIEHFKRYGRVESVKILPKRGSEGGVAAFVDFVDIKSAQKAHNSVNKMGDRDLRTDYNEPGTIPSAARGLDDTVSIASRSREVSGFRGGGGGPAYGPPPSLHAREGRYERRLDGASDNRERAYEHSAYGHHERGTGGFDRTRHYDQDYYRDPRERTLQHGLYYASRSRSPNRFDAHDPRYEPRAREQFTLPSVVHRDIYRDDITREVRGRRPERNYQHSRSRSPHSSQSRNQSPQRLASQASRPTRSPSGSGSRSRSSSSDSISSSSSTSSDSSDSSSSSSDDSPARSVQSAAVPAPTSQLLSSLEKDEPRKSFGIKVQNLPVRSTDTSLKDGLFHEFKKFGKVTSVQIHGTSEERYGLVFFRQQEDQEKALTASKGKLFFGMQIEVTAWIGPETESENEFRPLDERIDEFHPKATRTLFIGNLEKTTTYHDLRNIFQRFGEIVDIDIKKVNGVPQYAFLQYCDIASVCKAIKKMDGEYLGNNRLKLGFGKSMPTNCVWLDGLSSNVSDQYLTRHFCRYGPVVKVVFDRLKGMALVLYNEIEYAQAAVKETKGRKIGGNKIKVDFANRESQLAFYHCMEKSGQDIRD
modifications: GST fusion

B2: SKIP: coregulator, coactivator of ER transactivation, transfected expression vector (protein, UniProt Q13573 2-536, looked up)
SNW domain-containing protein …: ALTSFLPAPTQLSQDQLEAEEKARSQRSRQTSLVSSRREPPPYGYRKGWIPRLLEDFGDGGAFPEIHVAQYPLDMGRKKKMSNALAIQVDSEGKIKYDAIARQGQSKDKVIYSKYTDLVPKEVMNADDPDLQRPDEEAIKEITEKTRVALEKSVSQKVAAAMPVRAADKLAPAQYIRYTPSQQGVAFNSGAKQRVIRMVEMQKDPMEPPRFKINKKIPRGPPSPPAPVMHSPSRKMTVKEQQEWKIPPCISNWKNAKGYTIPLDKRLAADGRGLQTVHINENFAKLAEALYIADRKAREAVEMRAQVERKMAQKEKEKHEEKLREMAQKARERRAGIKTHVEKEDGEARERDEIRHDRRKERQHDRNLSRAAPDKRSKLQRNENRDISEVIALGVPNPRTSNEVQYDQRLFNQSKGMDSGFAGGEDEIYNVYDQAWRGGKDMAQSIYRPSKNLDKDMYGDDLEARIKTNRFVPDKEFSGSDRRQRGREGPVQFEEDPFGLDKFLEEAKQHGGSKRPSDSSRPKEHEHEGKKRRKE
- total increase in reporter activity (estrogen receptor (ER); SKIP with cotransfected SRA): ~6 fold
- increase of reporter activity (estrogen receptor (ER); transfected SKIP alone): ~2 fold
